According to article doi:10.1101/2023.03.06.531343:

Molecular target: VirE2-Venus (expressed in transgenic Arabidopsis roots) (Agrobacterium tumefaciens) (UniProt P0A3W8)
Test: co-IP

Chain of UniProt P0A3W8 (P0A3W8 whole entry): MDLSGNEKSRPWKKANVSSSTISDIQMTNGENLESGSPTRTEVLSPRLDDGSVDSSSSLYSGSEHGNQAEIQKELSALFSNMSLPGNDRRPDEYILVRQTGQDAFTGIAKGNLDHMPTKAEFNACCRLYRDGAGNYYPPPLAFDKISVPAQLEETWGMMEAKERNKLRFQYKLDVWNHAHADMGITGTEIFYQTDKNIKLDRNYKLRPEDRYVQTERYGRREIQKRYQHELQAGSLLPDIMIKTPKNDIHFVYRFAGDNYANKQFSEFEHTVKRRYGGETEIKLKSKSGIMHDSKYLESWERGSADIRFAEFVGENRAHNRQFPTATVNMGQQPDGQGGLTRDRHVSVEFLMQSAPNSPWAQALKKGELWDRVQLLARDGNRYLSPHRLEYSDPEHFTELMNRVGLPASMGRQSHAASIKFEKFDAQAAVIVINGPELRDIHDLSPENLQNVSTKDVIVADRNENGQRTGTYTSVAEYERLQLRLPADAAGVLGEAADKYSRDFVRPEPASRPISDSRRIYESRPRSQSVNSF

| Substance | percent of the input co-immunoprecipitated (% of the input) |
| --- | --- |
| myc-tagged myosin VIII-2 cargo binding domain (transgenic Arabidopsis roots) (domain or fragment) | 4 |
| myc-tagged myosin XI-K cargo binding domain (transgenic Arabidopsis roots) (domain or fragment) | 4 |
| myc-tagged myosin VIII-A cargo binding domain (transgenic Arabidopsis roots) (domain or fragment) | 4 |
| myc-tagged myosin VIII-B cargo binding domain (transgenic Arabidopsis roots) (domain or fragment) | 4 |
